Columns and labels:
[1] = molecular target: T1, human CD28 on cells (endogenous on Jurkat/NFkB-Luc cells; human primary CD4+ T cells) (human, UniProt P10747 19-220); test: cell-based or functional assay
[2] = molecular target: T1, human CD28 on cells (endogenous on …); test: cell-based or functional assay; remark: listed apart in the source
[3] = molecular target: T1, human CD28 on cells (endogenous on …); test: flow cytometry, Jurkat/NFkB-Luc cells (endogenous CD28)
[4] = molecular target: human CD28 expressed with a C-terminal murine Fc tag (hCD28.mFc) (human); test: SPR Biacore 25 C, hCD28.mFc captured by anti-mFc, antibody injected
[5] = molecular target: T2, human PD-L1 expressed on cells (HEK293/hCD20/hPSMA/hPD-L1; WSU-DLCL2/hPD-L1) (human, UniProt Q9NZQ7 19-290); test: flow cytometry, HEK293/hCD20/hPSMA/hPD-L1 cells
T2 construct: whole, on cells; also called human programmed death ligand-1
T2 sequence (Q9NZQ7 19-290): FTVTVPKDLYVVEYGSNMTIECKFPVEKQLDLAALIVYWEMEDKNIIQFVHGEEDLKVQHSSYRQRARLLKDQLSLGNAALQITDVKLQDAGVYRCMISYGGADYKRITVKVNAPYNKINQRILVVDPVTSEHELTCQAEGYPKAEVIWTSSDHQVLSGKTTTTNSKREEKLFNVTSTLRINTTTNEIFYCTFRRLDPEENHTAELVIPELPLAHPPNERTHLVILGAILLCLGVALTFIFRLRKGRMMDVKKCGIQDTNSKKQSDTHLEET

[6] = molecular target: T3, hPD-L1-mFc: hPD-L1 extracellular domain (amino acids F19-T239) expressed with the Fc portion of mouse IgG2a … (human; mouse, UniProt Q9NZQ7 19-239); test: blocking ELISA, 0.7 nM hPD-L1-mFc on plate-coated hPD1-hFc
T3 construct: range 19-239; not shown: Fc portion of mouse IgG2a, amino acids E98-K330
T3 sequence (Q9NZQ7 19-239 limits assumed): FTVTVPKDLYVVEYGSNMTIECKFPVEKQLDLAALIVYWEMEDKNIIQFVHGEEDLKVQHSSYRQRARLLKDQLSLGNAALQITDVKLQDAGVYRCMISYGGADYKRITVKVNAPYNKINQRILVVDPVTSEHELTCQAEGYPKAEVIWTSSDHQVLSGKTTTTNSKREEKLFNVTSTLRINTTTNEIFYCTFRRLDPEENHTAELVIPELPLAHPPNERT

[7] = molecular target: human PD-L1 expressed with a C-terminal myc-myc-hexahistidine tag (hPD-L1.mmH) (human); test: SPR Biacore 25 C, antibody captured by anti-hFc, hPD-L1.mmH injected
Chain of human PD-L1 expressed with a C-terminal myc-myc-hexahistidine tag (hPD-L1.mmH) (human) (chain, as listed by the source limits assumed): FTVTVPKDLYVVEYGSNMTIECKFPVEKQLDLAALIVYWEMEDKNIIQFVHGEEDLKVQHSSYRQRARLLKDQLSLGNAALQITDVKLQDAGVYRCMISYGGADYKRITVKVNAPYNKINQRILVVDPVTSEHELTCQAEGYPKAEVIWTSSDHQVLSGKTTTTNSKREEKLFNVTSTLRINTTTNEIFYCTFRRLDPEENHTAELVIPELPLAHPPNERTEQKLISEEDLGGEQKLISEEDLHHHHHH

[8] = molecular target: T2, human PD-L1 expressed on cells …; test: cell-based or functional assay

IL2 release MAX (RLU), CD4+ T cells + HEK293/hCD20/hPSMA [1] [RLU]	IL2 release MAX (RLU), CD4+ T cells + HEK293/hCD20/hPSMA + CD20×CD3 [1] [RLU]	IL2 release MAX (RLU), CD4+ T cells + HEK293/hCD20/hPSMA/hPD-L1 [1] [RLU]	IL2 release MAX (RLU), CD4+ T cells + HEK293/hCD20/hPSMA/hPD-L1 + CD20×CD3 [1] [RLU]	NFkB-luciferase EC50, Jurkat/NFkB-Luc + HEK293/hCD20/hPSMA/hPD-L1 + CD20×CD3 [2] [nM]	NFkB-luciferase MAX (RLU), Jurkat/NFkB-Luc + HEK293/hCD20/hPSMA [2] [RLU]	NFkB-luciferase MAX (RLU), Jurkat/NFkB-Luc + HEK293/hCD20/hPSMA + CD20×CD3 [2] [RLU]	NFkB-luciferase MAX (RLU), Jurkat/NFkB-Luc + HEK293/hCD20/hPSMA/hPD-L1 [2] [RLU]	NFkB-luciferase MAX (RLU), Jurkat/NFkB-Luc + HEK293/hCD20/hPSMA/hPD-L1 + CD20×CD3 [2] [RLU]	EC50 [3] [nM]	Fold Change (max MFI over secondary antibody alone) [3] [fold]	Max gMFI [3] [gMFI]	90 nM mAb Bind (RU) [4] [RU]	Kd [4] [nM]	koff [4] [s⁻¹]	kon [4] [M⁻¹ s⁻¹]	IL2 release EC50, CD4+ T cells + HEK293/hCD20/hPSMA + CD20×CD3 [1] [nM]	Fold Change (max MFI over secondary antibody alone) [5] [fold]	Max gMFI [5] [gMFI]	% Blocking at 100 nM mAb [6] [%]	Binder	also measured
5480	33700	2870	165000	0.028	11400	425000	16700	3.6e+06	7.5	90.4	28000	39.4	24.5	0.00326	133000	–	–	–	–	REGN6194 (bispecific antibody, human IgG4 S228P, kappa, also called PD-L1×CD28; anti-PD-L1 × anti-CD28 bispecific antibody) heavy 1: QVQLVQSGTEVKKPGASVKVSCKASGYTFTAYYMHWVRQAPGQGLDWMGWISPNSGFTNYAQKFQGRVTMTRDTSINTFYMELSGLRSDDTAVYYCAREGSTHHNSFDPWGQGTLVTVSSASTKGPSVFPLAPCSRSTSESTAALGCLVKDYFPEPVTVSWNSGALTSGVHTFPAVLQSSGLYSLSSVVTVPSSSLGTKTYTCNVDHKPSNTKVDKRVESKYGPPCPPCPAPPVAGPSVFLFPPKPKDTLMISRTPEVTCVVVDVSQEDPEVQFNWYVDGVEVHNAKTKPREEQFNSTYRVVSVLTVLHQDWLNGKEYKCKVSNKGLPSSIEKTISKAKGQPREPQVYTLPPSQEEMTKNQVSLTCLVKGFYPSDIAVEWESNGQPENNYKTTPPVLDSDGSFFLYSRLTVDKSRWQEGNVFSCSVMHEALHNHYTQKSLSLSLGK heavy 2: QVQLQESGPGLVKPSETLSLTCTVSGGSISSYYWSWIRQPPGKGLEWIGYIYYSGITHYNPSLKSRVTISVDTSKIQFSLKLSSVTAADTAVYYCARWGVRRDYYYYGMDVWGQGTTVTVSSASTKGPSVFPLAPCSRSTSESTAALGCLVKDYFPEPVTVSWNSGALTSGVHTFPAVLQSSGLYSLSSVVTVPSSSLGTKTYTCNVDHKPSNTKVDKRVESKYGPPCPPCPAPPVAGPSVFLFPPKPKDTLMISRTPEVTCVVVDVSQEDPEVQFNWYVDGVEVHNAKTKPREEQFNSTYRVVSVLTVLHQDWLNGKEYKCKVSNKGLPSSIEKTISKAKGQPREPQVYTLPPSQEEMTKNQVSLTCLVKGFYPSDIAVEWESNGQPENNYKTTPPVLDSDGSFFLYSRLTVDKSRWQEGNVFSCSVMHEALHNRFTQKSLSLSPGK light: not shown	t1/2 [4]: 3.5 min
3040	25600	2860	3620	–	–	–	–	–	9.3	60.3	25000	–	–	–	–	9.54	1.2	1800	1	mAb14216 (antibody, V domains shown, Bivalent parental antibody; also called parental bivalent anti-CD28 antibody; CD28 bivalent control antibody) VH: EVQLVESGGGLVQPGGSLRLSCAASGFTFSRNNMHWVRQAPGKGLEYVSGISSNGGRTYYADSVKGRFTISRDNSKNTLYLQMGGLRAADMAVYFCTRDDELLSFDYWGQGTLVTVSS VL: not shown	binding result [5]: no binding
3870	25200	2690	144000	0.243	17200	444000	110000	2.32e+06	–	24.1	10000	15.4	13.2	0.000342	25900	16.4	876	1.4e+06	97	REGN6192 (bispecific antibody, human IgG4 S228P, kappa, common light chain 1-39; also called PD-L1×CD28; anti-PD-L1 × anti-CD28 bispecific antibody) heavy 1: EVQLVESGGGLVQPGRSLRLSCAASGFTFDDYALHWVRQAPGKGLEWVSGISWTGGTIDYADSVKGRFTISRDNAKNSLYLQMSSLRTEDTAIYYCTRDIRGNWKYGGWFDPWGQGTLVTVSSASTKGPSVFPLAPCSRSTSESTAALGCLVKDYFPEPVTVSWNSGALTSGVHTFPAVLQSSGLYSLSSVVTVPSSSLGTKTYTCNVDHKPSNTKVDKRVESKYGPPCPPCPAPPVAGPSVFLFPPKPKDTLMISRTPEVTCVVVDVSQEDPEVQFNWYVDGVEVHNAKTKPREEQFNSTYRVVSVLTVLHQDWLNGKEYKCKVSNKGLPSSIEKTISKAKGQPREPQVYTLPPSQEEMTKNQVSLTCLVKGFYPSDIAVEWESNGQPENNYKTTPPVLDSDGSFFLYSRLTVDKSRWQEGNVFSCSVMHEALHNHYTQKSLSLSLGK heavy 2: EVQLVESGGGLVQPGGSLRLSCAASGFTFSTYAMTWVRQAPGKGLEWVSFISGSGDNTYYADSVKGRFTISRDNSKNTLYLQMNSLRADDSAIYHCAKDSGYCSSGGCSLYFYYGMDVWGQGTTVTVSSASTKGPSVFPLAPCSRSTSESTAALGCLVKDYFPEPVTVSWNSGALTSGVHTFPAVLQSSGLYSLSSVVTVPSSSLGTKTYTCNVDHKPSNTKVDKRVESKYGPPCPPCPAPPVAGPSVFLFPPKPKDTLMISRTPEVTCVVVDVSQEDPEVQFNWYVDGVEVHNAKTKPREEQFNSTYRVVSVLTVLHQDWLNGKEYKCKVSNKGLPSSIEKTISKAKGQPREPQVYTLPPSQEEMTKNQVSLTCLVKGFYPSDIAVEWESNGQPENNYKTTPPVLDSDGSFFLYSRLTVDKSRWQEGNVFSCSVMHEALHNRFTQKSLSLSPGK light: not shown	IL2 release EC50, CD4+ T cells + HEK293/hCD20/hPSMA/hPD-L1 + CD20×CD3 [1]: 0.104 nM; EC50 [5]: 2.5 nM; IC50 [6]: 1.2 nM; 30 nM hPD-L1.mmH Bind (RU) [7]: 34.9 RU; Kd [7]: 0.103 nM; koff [7]: 6.18e-05 s⁻¹; kon [7]: 600000 M⁻¹ s⁻¹; t1/2 [7]: 187 min; t1/2 [4]: 33.8 min; AP-1 luciferase EC50, WSU-DLCL2/hPD-L1 + Jurkat/AP1-Luc/hPD1 [8]: 0.183 nM; AP-1 luciferase MAX (RLU), WSU-DLCL2/hPD-L1 + Jurkat/AP1-Luc/hPD1 [8]: 1.19e+06 RLU
3110	33600	3070	4720	–	–	–	–	–	21	42.5	18000	–	–	–	–	24.9	3	4700	6	mAb14193 (antibody, V domains shown, Bivalent parental antibody; also called parental bivalent anti-CD28 antibody; CD28 bivalent control antibody) VH: EVQLVESGGGLVQPGGSLRLSCAASGFTFSTYAMTWVRQAPGKGLEWVSFISGSGDNTYYADSVKGRFTISRDNSKNTLYLQMNSLRADDSAIYHCAKDSGYCSSGGCSLYFYYGMDVWGQGTTVTVSS VL: not shown	binding result [5]: no binding
2910	64400	2860	38800	0.0875	73200	649000	60800	596000	0.73	101	43000	–	–	–	–	0.116	–	–	–	mAb14226 (antibody, V domains shown, Bivalent parental antibody; also called parental bivalent anti-CD28 antibody; CD28 bivalent control antibody) VH: QVQLQESGPGLVKPSETLSLTCTVSGGSISSYYWSWIRQPPGKGLEWIGYIYYSGITHYNPSLKSRVTISVDTSKIQFSLKLSSVTAADTAVYYCARWGVRRDYYYYGMDVWGQGTTVTVSS VL: not shown	IL2 release EC50, CD4+ T cells + HEK293/hCD20/hPSMA/hPD-L1 + CD20×CD3 [1]: 2.67 nM; NFkB-luciferase EC50, Jurkat/NFkB-Luc + HEK293/hCD20/hPSMA [2]: 5.69 nM; NFkB-luciferase EC50, Jurkat/NFkB-Luc + HEK293/hCD20/hPSMA + CD20×CD3 [2]: 0.0514 nM

From patent US20250043002A1 (Regeneron, published 2025)
